± gives the standard deviation of the averaged measurements.
B1: library; a variant is named by its letters at N, in order (parent)
chain: GCUGUCACCGGUGCUUGGUACGUUAUAUUCAGCCGGUCUGAUGAGUCUNNNNNNAGACGAAACAGC

Assays:
(6R,S)-folinic acid [1] = variants of: B1; assay: normalized RNA/DNA level without ligand (relative to sTRSVctl = 100) (log10 (% of sTRSVctl)); HEK293T overexpressing SLC46A1; higher = less ribozyme self-cleavage, higher mRNA level; conditions: without (6R,S)-folinic acid; ligand present: no
Outline: (§1)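 HEK293T cells were transfected with library plasmids carrying ribozyme switches linked to an mCherry reporter, or an eGFP reporter in some ligand experiments, at 4 µg per well of a 6-well plate, with any ligand added 1 h beforehand. After 72 h, total RNA was extracted with EDTA, reverse-transcribed, amplified, barcoded and sequenced. RNA level was defined as RNA reads over DNA reads, normalized to a spiked-in non-cleaving sequence or to the top-ranked sequences. That value was multiplied by 100 and converted to log10, the top set was 25 sequences, and only sequences with ≥100 DNA reads were retained.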

(6R,S)-folinic acid [2] = variants of: B1; assay: normalized RNA/DNA level with ligand (relative to sTRSVctl = 100) (log10 (% of sTRSVctl)); HEK293T overexpressing SLC46A1; ligand concentration (+) RNA-Seq: 6 mM; higher = less ribozyme self-cleavage, higher mRNA level; conditions: with (6R,S)-folinic acid; ligand present: yes
Outline: as §1

Variant | normalized RNA/DNA level without ligand (log10) ((6R,S)-folinic acid [1]) | normalized RNA/DNA level with ligand (log10) ((6R,S)-folinic acid [2])
GCUGUCACCGGUGCUUGGUACGUUAUAUUCAGCCGGUCUGAUGAGUCUCUAAGAAGACGAAACAGC [CUAAGA] | 2.017 ± 0.0036 | 2 ± 0.04
GCUGUCACCGGUGCUUGGUACGUUAUAUUCAGCCGGUCUGAUGAGUCUCUAAGGAGACGAAACAGC [CUAAGG] | 1.96 ± 0.0065 | 2.002 ± 0.014
GCUGUCACCGGUGCUUGGUACGUUAUAUUCAGCCGGUCUGAUGAGUCUCUAAGCAGACGAAACAGC [CUAAGC] | 2.02 ± 0.026 | 2.024 ± 0.018
GCUGUCACCGGUGCUUGGUACGUUAUAUUCAGCCGGUCUGAUGAGUCUAUACACAGACGAAACAGC [AUACAC] | 2.01 ± 0.026 | 2.04 ± 0.039
GCUGUCACCGGUGCUUGGUACGUUAUAUUCAGCCGGUCUGAUGAGUCUCUAACCAGACGAAACAGC [CUAACC] | 2.007 ± 0.0068 | 1.98 ± 0.073
GCUGUCACCGGUGCUUGGUACGUUAUAUUCAGCCGGUCUGAUGAGUCUCUAACUAGACGAAACAGC [CUAACU] | 2.007 ± 0.0098 | 2 ± 0.035
GCUGUCACCGGUGCUUGGUACGUUAUAUUCAGCCGGUCUGAUGAGUCUCUAACGAGACGAAACAGC [CUAACG] | 2.02 ± 0.018 | 1.99 ± 0.053
GCUGUCACCGGUGCUUGGUACGUUAUAUUCAGCCGGUCUGAUGAGUCUCUAACAAGACGAAACAGC [CUAACA] | 2.026 ± 0.012 | 2.03 ± 0.043
GCUGUCACCGGUGCUUGGUACGUUAUAUUCAGCCGGUCUGAUGAGUCUUUAAAUAGACGAAACAGC [UUAAAU] | 1.974 ± 0.0099 | 2.01 ± 0.024
GCUGUCACCGGUGCUUGGUACGUUAUAUUCAGCCGGUCUGAUGAGUCUUUAAUUAGACGAAACAGC [UUAAUU] | 2.011 ± 0.0048 | 2.01 ± 0.042
GCUGUCACCGGUGCUUGGUACGUUAUAUUCAGCCGGUCUGAUGAGUCUUUAAUCAGACGAAACAGC [UUAAUC] | 2.0392 ± 0.0017 | 2.03 ± 0.034
GCUGUCACCGGUGCUUGGUACGUUAUAUUCAGCCGGUCUGAUGAGUCUGUAAUUAGACGAAACAGC [GUAAUU] | 2.013 ± 0.0027 | 1.99 ± 0.024
GCUGUCACCGGUGCUUGGUACGUUAUAUUCAGCCGGUCUGAUGAGUCUUUAACAAGACGAAACAGC [UUAACA] | 1.998 ± 0.0047 | 1.971 ± 0.01
GCUGUCACCGGUGCUUGGUACGUUAUAUUCAGCCGGUCUGAUGAGUCUUUAACCAGACGAAACAGC [UUAACC] | 2.016 ± 0.0049 | 2 ± 0.025
GCUGUCACCGGUGCUUGGUACGUUAUAUUCAGCCGGUCUGAUGAGUCUUUAACGAGACGAAACAGC [UUAACG] | 1.934 ± 0.018 | 1.984 ± 0.019
GCUGUCACCGGUGCUUGGUACGUUAUAUUCAGCCGGUCUGAUGAGUCUUUAACUAGACGAAACAGC [UUAACU] | 2.041 ± 0.0026 | 2.018 ± 0.0049
GCUGUCACCGGUGCUUGGUACGUUAUAUUCAGCCGGUCUGAUGAGUCUGUAAAGAGACGAAACAGC [GUAAAG] | 1.94 ± 0.015 | 2 ± 0.027
GCUGUCACCGGUGCUUGGUACGUUAUAUUCAGCCGGUCUGAUGAGUCUCUACAAAGACGAAACAGC [CUACAA] | 1.98 ± 0.0052 | 1.99 ± 0.024
GCUGUCACCGGUGCUUGGUACGUUAUAUUCAGCCGGUCUGAUGAGUCUCUACACAGACGAAACAGC [CUACAC] | 2.05 ± 0.011 | 2.023 ± 0.016
GCUGUCACCGGUGCUUGGUACGUUAUAUUCAGCCGGUCUGAUGAGUCUCUACAGAGACGAAACAGC [CUACAG] | 1.977 ± 0.011 | 2.03 ± 0.029
GCUGUCACCGGUGCUUGGUACGUUAUAUUCAGCCGGUCUGAUGAGUCUGUACAAAGACGAAACAGC [GUACAA] | 1.966 ± 0.013 | 1.986 ± 0.011

Variant | normalized RNA/DNA level without ligand (log10) ((6R,S)-folinic acid [1]) | normalized RNA/DNA level with ligand (log10) ((6R,S)-folinic acid [2])
GCUGUCACCGGUGCUUGGUACGUUAUAUUCAGCCGGUCUGAUGAGUCUUUACAAAGACGAAACAGC [UUACAA] | 1.963 ± 0.0022 | 2.01 ± 0.028
GCUGUCACCGGUGCUUGGUACGUUAUAUUCAGCCGGUCUGAUGAGUCUUUACACAGACGAAACAGC [UUACAC] | 2.003 ± 0.0021 | 1.99 ± 0.038
GCUGUCACCGGUGCUUGGUACGUUAUAUUCAGCCGGUCUGAUGAGUCUCUAAUUAGACGAAACAGC [CUAAUU] | 2.011 ± 0.01 | 2.02 ± 0.061
GCUGUCACCGGUGCUUGGUACGUUAUAUUCAGCCGGUCUGAUGAGUCUCUAAUCAGACGAAACAGC [CUAAUC] | 2.072 ± 0.014 | 2.007 ± 0.013
GCUGUCACCGGUGCUUGGUACGUUAUAUUCAGCCGGUCUGAUGAGUCUCUAAUGAGACGAAACAGC [CUAAUG] | 2.026 ± 0.013 | 2.02 ± 0.038
GCUGUCACCGGUGCUUGGUACGUUAUAUUCAGCCGGUCUGAUGAGUCUAUAACGAGACGAAACAGC [AUAACG] | 1.9455 ± 0.0011 | 2.02 ± 0.033
GCUGUCACCGGUGCUUGGUACGUUAUAUUCAGCCGGUCUGAUGAGUCUGUAAGAAGACGAAACAGC [GUAAGA] | 2.005 ± 0.0094 | 1.99 ± 0.02
GCUGUCACCGGUGCUUGGUACGUUAUAUUCAGCCGGUCUGAUGAGUCUGUAAGUAGACGAAACAGC [GUAAGU] | 1.939 ± 0.0089 | 2.02 ± 0.06
GCUGUCACCGGUGCUUGGUACGUUAUAUUCAGCCGGUCUGAUGAGUCUAGUUUUAGACGAAACAGC [AGUUUU] | 2.01 ± 0.027 | 1.98 ± 0.02
GCUGUCACCGGUGCUUGGUACGUUAUAUUCAGCCGGUCUGAUGAGUCUGUAACAAGACGAAACAGC [GUAACA] | 2.016 ± 0.0052 | 1.98 ± 0.042
GCUGUCACCGGUGCUUGGUACGUUAUAUUCAGCCGGUCUGAUGAGUCUGUAACGAGACGAAACAGC [GUAACG] | 1.997 ± 0.0059 | 2 ± 0.039
GCUGUCACCGGUGCUUGGUACGUUAUAUUCAGCCGGUCUGAUGAGUCUGUAACUAGACGAAACAGC [GUAACU] | 2.03 ± 0.016 | 2.03 ± 0.036
GCUGUCACCGGUGCUUGGUACGUUAUAUUCAGCCGGUCUGAUGAGUCUUUAAGCAGACGAAACAGC [UUAAGC] | 2.022 ± 0.0089 | 2.027 ± 0.016
GCUGUCACCGGUGCUUGGUACGUUAUAUUCAGCCGGUCUGAUGAGUCUUUAAGUAGACGAAACAGC [UUAAGU] | 1.996 ± 0.014 | 2.024 ± 0.0034
GCUGUCACCGGUGCUUGGUACGUUAUAUUCAGCCGGUCUGAUGAGUCUCUAAACAGACGAAACAGC [CUAAAC] | 1.983 ± 0.006 | 1.992 ± 0.018
GCUGUCACCGGUGCUUGGUACGUUAUAUUCAGCCGGUCUGAUGAGUCUCUAAAUAGACGAAACAGC [CUAAAU] | 1.977 ± 0.0084 | 1.99 ± 0.034
GCUGUCACCGGUGCUUGGUACGUUAUAUUCAGCCGGUCUGAUGAGUCUAUAAGAAGACGAAACAGC [AUAAGA] | 1.971 ± 0.0094 | 2.01 ± 0.034
GCUGUCACCGGUGCUUGGUACGUUAUAUUCAGCCGGUCUGAUGAGUCUAUAAUCAGACGAAACAGC [AUAAUC] | 2.024 ± 0.015 | 2 ± 0.032
GCUGUCACCGGUGCUUGGUACGUUAUAUUCAGCCGGUCUGAUGAGUCUAUAAUGAGACGAAACAGC [AUAAUG] | 1.91 ± 0.021 | 2 ± 0.043
GCUGUCACCGGUGCUUGGUACGUUAUAUUCAGCCGGUCUGAUGAGUCUAUAAUUAGACGAAACAGC [AUAAUU] | 1.99 ± 0.025 | 2.03 ± 0.038
